From the supplement of paper PMC9732359
± gives the uncertainty stated by the source.

Assay: protein stability index of a GFP-peptide fusion (yeast GPS) (PSI 1-4); higher = more stable; sorted into four equal gates, so the index is relative within each strain
Conditions: doa10∆
In short: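 Sequencing reads from sorted gates were used to score each peptide. The library consisted of tiled 17-residue yeast protein peptides fused downstream of GFP on a Cherry-expressing plasmid, pooled and carried in yeast. Mid-log cultures in leucine-free medium were split into four equal gates by GFP/Cherry ratio, and each gate's plasmids were PCR-amplified and Illumina-sequenced. The protein stability index adds up, over all gates, the read frequency multiplied by the gate number.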

Sequence | protein stability index
KRSGHRTAPKSDNVYLK [RPL18A] | 2.85 ± 0.12
KRYTSEGTRNRFSYSPP [YMR129W/POM152] | 3.09 ± 0.088
KSAMDTFKSVSKYGMLL [POP3] | 2.41 ± 0.063
KSDTVTSASQPFKFGKT [YOR098C/NUP1] | 2.34 ± 0.081
KSFTNDKIPLNYAMTRN [SRB5] | 2.8 ± 0.13
KSGIPEFTPADPNLSFE [SSN2] | 2.96 ± 0.091
KSHSTVSSSSRHHRKTE [ISW2] | 2.7 ± 0.055
KSICFENCLNNDPEILK [SWI1] | 2.2 ± 0.087
KSLDKKIAKRRQVYKPV [POP3] | 3.25 ± 0.21
KSLEVVNADTVGKTVKQ [NSL1] | 3.13 ± 0.059
KSLGVKSLGGGAALKDI [FAS2] | 3 ± 0.051
KSLLLNTLNIDNTARVI [BRN1] | 2.71 ± 0.057
KSPEQCILRFLQLPIED [SWI3] | 1.81 ± 0.067
KSQNTALPSTHKVTQKK [SIR4] | 2.6 ± 0.061
KSSGSSMATPTHSDSHE [ROX3] | 3.08 ± 0.16
KSSWRQEWLANLKLISV [SIR4] | 1.71 ± 0.057
KSTDLTPKGNESEQELS [MTR3] | 3.39 ± 0.11
KSTDNSAIRQVFERFKT [IRR1] | 2.21 ± 0.046
KSWLNRLNNWLFGWNDL [YMR153W/NUP53] | 2.63 ± 0.057
KSYYLNTVMLQGIFKNS [AAR2] | 1.34 ± 0.069
KTGITKKDEDEEADEDM [PRE9] | 3.37 ± 0.13
KTKEAVAALKAVGAHSD [RPL4A] | 3.47 ± 0.087
KTNEESAKMILLSDPTI [PRP8] | 2.77 ± 0.12
KTPEEVEVYAKIFWERL [ISW2] | 1.74 ± 0.081
KTQQNEKSENGENDDDT [RPN3] | 3.04 ± 0.19
KTSNIESVPIYSIDEFF [BRR2] | 2.56 ± 0.062

Sequence | protein stability index
KTTRLLLIIRSLKNTDA [YJL039C/NUP192] | 1.51 ± 0.056
KTYEPVLNEDDLAFGGE [RPN5] | 3.27 ± 0.09
KVAEVKKLEGTIEYQKL [RPT4] | 3.13 ± 0.12
KVAPAPFGAKSTKSNKA [RPL8B] | 2.6 ± 0.085
KVDNDLRIELQSVYNDE [SRB8] | 3.16 ± 0.22
KVEIKKVNSRDDSFFNE [PRP28] | 3.16 ± 0.082
KVESQETLNDTIERSLI [YCS4] | 2.73 ± 0.092
KVFSLDPQYLVDDLRPE [ASC1] | 2.94 ± 0.16
KVISNPLLARKQFVVDV [RPS24A] | 1.95 ± 0.088
KVKILEQIDENWSKEDL [SWI3] | 3.12 ± 0.079
KVKNQGADVTNTTQDNG [YCS4] | 3.17 ± 0.086
KVLCLAVAVGNVEMEED [RPL1A] | 1.58 ± 0.064
KVLNEISKTTLTLDPRY [RPN3] | 2.88 ± 0.085
KVSSASAAASESDVAKQ [RPL16B] | 2.93 ± 0.067
KVTQMTPAPKISYKKGA [RPL36B] | 3.12 ± 0.13
KVVIPNLLCYYNLRSLN [RPN3] | 2.44 ± 0.19
KVYYFQGGNNELGTAVG [RPL30] | 2.67 ± 0.093
KWDITTRNSNNLAIVEL [BRR2] | 3.16 ± 0.071
KYCEIMGDNSQLDFTEF [SNF2] | 3.16 ± 0.085
KYHYKEEWLNTKDPDEQ [CSN9] | 2.86 ± 0.086
KYLEQVLDHQRAIPFRR [RPL17A] | 2.52 ± 0.059
KYLPHAILKLLENMPHP [PRP8] | 2 ± 0.081
LAAIVSTVIEEFTLFMD [YGL172W/NUP49] | 2.21 ± 0.052
LAALNVWYGLSDGEDGH [SSN2] | 3.19 ± 0.12
LAEEKIRAAGGVVELIA [RPL28] | 2.919 ± 0.025
LAEEVVDNIVNKYQYSL [SRP68] | 3.09 ± 0.069

Sequence | protein stability index
LAHYVVTAKLLGFTPGE [FAS1] | 1.6 ± 0.13
LAIADVETKLETKVDEL [DSN1] | 3.04 ± 0.084
LAKIKEEEMAPYYKYLC [RPN7] | 1.28 ± 0.091
LAKSGSTEETTANTGTI [TAF14] | 2.61 ± 0.08
LALETVLIKMVKMLRDN [SIR3] | 2.26 ± 0.11
LAMNDDDFLSKKRKAGR [SNF2] | 3.41 ± 0.11
LANNVESKLRDDLERLK [RPS18A] | 3.45 ± 0.16
LAPARVRRRFARGMTSK [RPS15] | 2.99 ± 0.1
LAPNMQLNGNETFSTSA [SNF2] | 3.15 ± 0.14
LASPEVKVHMDSETSDP [DIS3] | 3.09 ± 0.082
LATDVTTLNEMFRYKTN [PUP3] | 1.85 ± 0.14
LATYGLTIDDLGVASFH [FAS2] | 2.97 ± 0.055
LAVCDELGNMTMLITGQ [SIN4] | 2.21 ± 0.06
LAVTNLLIISCIIFITF [YML031W/NDC1] | 1.34 ± 0.034
LAYENKITDKEDLLHYI [POP4] | 3.35 ± 0.15
LCEEYLVNNGQSDLEHD [RPN7] | 2.78 ± 0.11
LCTLNDSKGSLYSVKFA [YGL100W/SEH1] | 2.94 ± 0.13
LDDPVLNAIVSKNSPAE [YJR042W/NUP85] | 2.9 ± 0.16
LDFQTNKRLCDEIATIQ [RPS17A] | 2.53 ± 0.091
LDIPNVSLVVNFQISKK [PRP28] | 2.32 ± 0.067
LDKIYTRPISSQVLDLA [SMC2] | 1.53 ± 0.079
LDKQIEELVEAIVLPMK [RPT5] | 2.97 ± 0.15
LDSNFNLQREIDQAHVS [RPN14] | 2.49 ± 0.045
LDSQETPSTEESRAQNV [SWI3] | 2.41 ± 0.091
LDVSSDRRKARKAYFTA [RPL26A] | 1.79 ± 0.081
LEALMDILLCYQKLFSQ [SRB8] | 2.98 ± 0.055

Sequence | protein stability index
LEAVNSMIEKGGDWERR [RPN7] | 3.02 ± 0.1
LEEFEFKHGPMSLINDA [SMD2] | 3.32 ± 0.073
LEGTRVSLEERTKNLVS [SMC4] | 3.45 ± 0.09
LEKISSSNKDLEDEKMK [SMC4] | 3.31 ± 0.079
LEKLIFDMTNHYNDSQQ [SRB8] | 2.82 ± 0.053
LELMDSKKTGQFNAQGV [POP1] | 3.54 ± 0.12
LEMSTEDFVKLAPARVR [RPS15] | 2.83 ± 0.13
LENFKSYAGKQVVGPFH [SMC4] | 3.04 ± 0.076
LENMPHPWEQAKEVKVL [PRP8] | 2.7 ± 0.23
LEQEYRLILLLNHRNKN [RMP1] | 1.28 ± 0.045
LEQIQVQLKDANSQIQA [YIL149C/MLP2] | 2.55 ± 0.12
LEQQKQPTGLLKGLNGF [YMR153W/NUP53] | 3.53 ± 0.12
LERARDVNIVNRRLVYS [YCG1] | 2.44 ± 0.27
LERTAIELKTDWVRFLA [RPN1] | 1.58 ± 0.13
LERYVKRCMDDLNPLKT [RPO31] | 3.08 ± 0.078
LESGKETALEFLEKEKQ [SMC4] | 3.62 ± 0.12
LESLKPIDDTMTLLTDS [MTW1] | 3 ± 0.092
LEVANDLQLLYVESDED [IRR1] | 1.43 ± 0.13
LEWNMANLLFKKEKLKQ [RPC82] | 2.13 ± 0.11
LFAFNGVARNFHFAIEQ [SIN4] | 3.01 ± 0.14
LFAREIAKSQDKKSCSV [DPB4] | 3.33 ± 0.064
LFGEKSILGKFCPIVEE [YCS4] | 1.55 ± 0.041
LFGENDTSTQAYEEEEE [NUT1] | 3.34 ± 0.09
LFGSKPQGSTTNGGLFG [YGR119C/NUP57] | 3.38 ± 0.086
